Test [1] deals with T1, USP1-Flag (wild-type human USP1 with in-frame C-terminal Flag epitope) (human, UniProt O94782 1-785).
T1 construct: Synthesised human USP1 cDNA in pRK2001, expressed in 293T cells; also called USP1 wild-type; WT
T1 sequence: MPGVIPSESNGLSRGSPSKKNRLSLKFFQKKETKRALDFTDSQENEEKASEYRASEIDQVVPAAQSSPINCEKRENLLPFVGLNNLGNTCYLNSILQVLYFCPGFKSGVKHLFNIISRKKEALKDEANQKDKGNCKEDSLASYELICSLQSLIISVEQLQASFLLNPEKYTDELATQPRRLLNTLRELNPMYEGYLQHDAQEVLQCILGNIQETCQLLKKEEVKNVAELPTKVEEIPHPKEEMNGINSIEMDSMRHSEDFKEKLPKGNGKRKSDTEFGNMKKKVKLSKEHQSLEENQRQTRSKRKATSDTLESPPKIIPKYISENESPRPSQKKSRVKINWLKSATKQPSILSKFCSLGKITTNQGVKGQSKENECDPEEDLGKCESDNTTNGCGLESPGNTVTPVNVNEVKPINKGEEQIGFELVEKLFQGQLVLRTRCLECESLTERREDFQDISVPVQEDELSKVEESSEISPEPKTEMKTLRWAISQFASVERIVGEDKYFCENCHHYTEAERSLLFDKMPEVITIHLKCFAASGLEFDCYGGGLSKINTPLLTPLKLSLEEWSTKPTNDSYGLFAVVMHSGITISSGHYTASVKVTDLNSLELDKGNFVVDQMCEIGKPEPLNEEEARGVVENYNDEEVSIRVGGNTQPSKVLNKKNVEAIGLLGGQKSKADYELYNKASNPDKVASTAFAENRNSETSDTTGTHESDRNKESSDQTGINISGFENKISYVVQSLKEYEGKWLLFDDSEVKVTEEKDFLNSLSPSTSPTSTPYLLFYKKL
The test can be described thus: Flag immunoprecipitation of DUBs from 293T cells cotransfected with ID2, MG-132 treated; blot for ID2 (FIG. 2B). As to the method:
(§1) FIG. 2. […] (A) Western blot (WB) analysis of 293T transfected with Flag-tagged deubiquitinases (DUBs) or an empty vector (−). Where indicated, cells were treated with […] MG-132 for 4 hr. (B) Flag-tagged DUBs were immunoprecipitated (IP) from 293T cells cotransfected with ID2 and treated with […] MG-132 for 6 hr.

The target of test [2] is USP9Y-Flag (human USP9Y with C-terminal Flag epitope) (human, UniProt O00507 1-2555, limits assumed). The test can be described thus: Flag immunoprecipitation of DUBs from 293T cells cotransfected with ID2, MG-132 treated (FIG. 2B). The procedure:
as §1

The target of test [3] is T2, SENP5-Flag (human SENP5 with C-terminal Flag epitope) (human, UniProt Q96HI0 1-755, limits assumed).
T2 sequence (looked up): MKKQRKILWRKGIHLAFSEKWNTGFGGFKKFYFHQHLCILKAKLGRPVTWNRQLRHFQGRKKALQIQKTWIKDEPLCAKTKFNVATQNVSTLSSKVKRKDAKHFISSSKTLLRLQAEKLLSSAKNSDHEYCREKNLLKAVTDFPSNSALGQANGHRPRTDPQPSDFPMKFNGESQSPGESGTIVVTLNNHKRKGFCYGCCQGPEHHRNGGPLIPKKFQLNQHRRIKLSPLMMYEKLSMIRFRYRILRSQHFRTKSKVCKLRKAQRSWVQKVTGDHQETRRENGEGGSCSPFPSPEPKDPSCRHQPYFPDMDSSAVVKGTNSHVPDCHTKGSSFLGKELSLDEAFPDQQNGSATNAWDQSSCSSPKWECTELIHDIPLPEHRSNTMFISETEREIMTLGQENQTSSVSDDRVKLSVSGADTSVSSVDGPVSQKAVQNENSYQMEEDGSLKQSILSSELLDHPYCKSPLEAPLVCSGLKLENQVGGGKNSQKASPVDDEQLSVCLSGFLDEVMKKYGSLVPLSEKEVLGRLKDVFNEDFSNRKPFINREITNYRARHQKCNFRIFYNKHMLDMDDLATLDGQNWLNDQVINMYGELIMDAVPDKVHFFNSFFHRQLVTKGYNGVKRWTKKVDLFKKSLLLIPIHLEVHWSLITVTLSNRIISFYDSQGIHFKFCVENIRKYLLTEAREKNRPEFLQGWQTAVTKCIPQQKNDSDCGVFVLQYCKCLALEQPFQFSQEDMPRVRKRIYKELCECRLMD
The description is as above. The procedure: as §1

Test [4] deals with T3, OTUD5-Flag (human OTUD5 with C-terminal Flag epitope) (human, UniProt Q96G74 1-571, limits assumed).
T3 sequence (looked up): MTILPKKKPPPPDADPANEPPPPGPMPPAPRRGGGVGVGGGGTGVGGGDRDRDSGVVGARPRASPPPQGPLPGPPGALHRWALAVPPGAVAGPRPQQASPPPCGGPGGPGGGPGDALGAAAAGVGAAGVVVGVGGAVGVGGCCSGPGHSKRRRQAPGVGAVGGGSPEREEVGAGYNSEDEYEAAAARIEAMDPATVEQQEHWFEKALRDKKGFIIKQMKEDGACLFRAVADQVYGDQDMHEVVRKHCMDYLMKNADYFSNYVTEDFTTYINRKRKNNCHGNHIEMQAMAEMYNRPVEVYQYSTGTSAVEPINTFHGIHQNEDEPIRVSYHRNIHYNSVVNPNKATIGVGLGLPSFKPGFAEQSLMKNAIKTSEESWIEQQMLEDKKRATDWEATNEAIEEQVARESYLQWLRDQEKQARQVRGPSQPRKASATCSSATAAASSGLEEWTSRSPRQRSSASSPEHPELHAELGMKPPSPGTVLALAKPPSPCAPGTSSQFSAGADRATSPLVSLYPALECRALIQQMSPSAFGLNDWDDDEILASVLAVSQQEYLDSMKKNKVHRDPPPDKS
Described as above. As to the method:
as §1

Chain of USP9Y-Flag (human USP9Y with C-terminal Flag epitope) (O00507 whole entry): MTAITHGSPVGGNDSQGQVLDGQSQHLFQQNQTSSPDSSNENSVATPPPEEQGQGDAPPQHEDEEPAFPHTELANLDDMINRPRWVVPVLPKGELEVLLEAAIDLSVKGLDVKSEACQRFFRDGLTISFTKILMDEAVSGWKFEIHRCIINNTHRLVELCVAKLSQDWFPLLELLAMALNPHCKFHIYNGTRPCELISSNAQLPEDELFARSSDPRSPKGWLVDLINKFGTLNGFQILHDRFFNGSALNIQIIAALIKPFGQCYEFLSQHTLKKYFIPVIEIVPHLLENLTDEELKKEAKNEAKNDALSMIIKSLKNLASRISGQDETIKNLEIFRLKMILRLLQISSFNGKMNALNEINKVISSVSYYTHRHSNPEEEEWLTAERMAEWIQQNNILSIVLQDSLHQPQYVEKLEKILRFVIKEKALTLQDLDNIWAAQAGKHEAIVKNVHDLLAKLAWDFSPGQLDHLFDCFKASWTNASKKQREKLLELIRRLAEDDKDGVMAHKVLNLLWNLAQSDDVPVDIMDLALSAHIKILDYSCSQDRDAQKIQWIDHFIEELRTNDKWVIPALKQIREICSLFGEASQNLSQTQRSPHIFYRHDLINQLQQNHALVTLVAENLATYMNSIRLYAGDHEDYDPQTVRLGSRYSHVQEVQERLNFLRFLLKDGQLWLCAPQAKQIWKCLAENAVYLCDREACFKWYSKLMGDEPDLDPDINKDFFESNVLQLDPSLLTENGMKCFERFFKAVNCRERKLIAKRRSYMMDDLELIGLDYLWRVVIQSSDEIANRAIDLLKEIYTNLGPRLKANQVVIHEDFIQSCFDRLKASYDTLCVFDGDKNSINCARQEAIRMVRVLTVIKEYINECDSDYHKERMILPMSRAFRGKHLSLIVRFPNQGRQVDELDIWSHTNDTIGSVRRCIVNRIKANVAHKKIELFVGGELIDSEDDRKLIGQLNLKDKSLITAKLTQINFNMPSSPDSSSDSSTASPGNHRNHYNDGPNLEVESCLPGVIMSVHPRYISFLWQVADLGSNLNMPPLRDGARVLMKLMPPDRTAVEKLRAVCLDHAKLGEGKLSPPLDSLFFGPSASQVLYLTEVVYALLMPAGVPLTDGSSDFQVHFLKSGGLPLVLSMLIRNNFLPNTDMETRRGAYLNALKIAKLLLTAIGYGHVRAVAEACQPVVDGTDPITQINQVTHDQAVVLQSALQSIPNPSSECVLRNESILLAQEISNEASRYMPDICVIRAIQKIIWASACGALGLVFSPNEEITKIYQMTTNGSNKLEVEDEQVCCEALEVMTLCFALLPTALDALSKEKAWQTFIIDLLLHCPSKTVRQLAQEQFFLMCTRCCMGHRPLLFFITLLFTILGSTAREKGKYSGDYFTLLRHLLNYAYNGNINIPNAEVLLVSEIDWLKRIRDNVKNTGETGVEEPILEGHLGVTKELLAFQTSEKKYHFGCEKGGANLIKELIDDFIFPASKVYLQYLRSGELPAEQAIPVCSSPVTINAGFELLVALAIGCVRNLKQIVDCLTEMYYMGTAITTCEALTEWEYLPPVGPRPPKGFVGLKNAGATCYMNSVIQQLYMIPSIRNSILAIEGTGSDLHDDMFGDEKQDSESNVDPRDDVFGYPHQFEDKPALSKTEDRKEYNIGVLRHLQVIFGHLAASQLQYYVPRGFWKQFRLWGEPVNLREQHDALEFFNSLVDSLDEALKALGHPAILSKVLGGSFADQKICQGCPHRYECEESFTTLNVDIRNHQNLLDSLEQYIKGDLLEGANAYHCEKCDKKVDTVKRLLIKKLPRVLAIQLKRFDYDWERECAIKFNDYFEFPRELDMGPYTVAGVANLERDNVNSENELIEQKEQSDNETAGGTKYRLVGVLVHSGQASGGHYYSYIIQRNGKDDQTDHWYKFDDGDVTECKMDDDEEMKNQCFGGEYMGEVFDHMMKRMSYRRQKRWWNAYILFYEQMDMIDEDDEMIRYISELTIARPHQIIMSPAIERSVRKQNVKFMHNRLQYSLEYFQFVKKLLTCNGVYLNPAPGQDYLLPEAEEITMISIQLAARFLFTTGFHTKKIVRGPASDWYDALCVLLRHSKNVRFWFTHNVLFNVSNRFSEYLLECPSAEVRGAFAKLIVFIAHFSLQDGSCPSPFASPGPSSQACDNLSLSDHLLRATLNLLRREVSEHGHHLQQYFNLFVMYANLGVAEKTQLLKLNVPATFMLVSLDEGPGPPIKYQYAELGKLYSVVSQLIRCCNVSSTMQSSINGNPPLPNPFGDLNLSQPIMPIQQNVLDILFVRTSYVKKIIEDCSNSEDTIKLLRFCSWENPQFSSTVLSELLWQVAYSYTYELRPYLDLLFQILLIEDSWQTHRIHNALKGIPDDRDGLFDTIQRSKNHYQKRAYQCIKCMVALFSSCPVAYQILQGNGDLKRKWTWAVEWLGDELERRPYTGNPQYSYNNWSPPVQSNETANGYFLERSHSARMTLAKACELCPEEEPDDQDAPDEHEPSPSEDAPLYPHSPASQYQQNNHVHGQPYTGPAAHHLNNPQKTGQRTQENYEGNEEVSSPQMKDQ

B1: ID2 (co-transfected / co-expressed in 293T cells) (other)
chain: MKAFSPVRSVRKNSLSDHSLGISRSKTPVDDPMSLLYNMNDCYSKLKELVPSIPQNKKVSKMEILQHVIDYILDLQIALDSHPTIVSLHHQRPGQNQASRTPLTTLNTDISILSLQASEFPSELMSNDSKALCG
notes: ID2 was amplified from Jurkat-derived cDNA; The methods describe only a C-terminal Flag version in pRK2001
With B1, the binding result in test [1] is on record as “binds”; in test [2] it was “no binding”; in test [3] it was “no binding”; in test [4] it was “no binding”.

The values above are taken from patent US20140199327A1, “METHODS OF PROMOTING DIFFERENTIATION” (Genentech, Inc., priority 2011, published 2014).
